This data set deals with the molecule itself. Briefly: light scattering at 320 nm; lyophilized protein suspended to 400 uM in 50 mM sodium phosphate pH 6.0, 100 mM NaCl or 50 mM bis-Tris/HCl pH 6.0, 100 mM NaCl (mutants also at high phosphate); dissolution followed over time.

B1: hSTOM(SPFH)-[R125A] (domain or fragment, human, UniProt P27105 94-202, looked up)
chain: VDMRTISFDIPPQEILTKDSVTISVDGVVYYAVQNATLAVANITNADSATRLLAQTTLRNVLGTKNLSQILSDREEIAHNMQSTLDDATDAWGIKVERVEIKDVKLPVQ
notes: human stomatin (STOM), SPFH domain, residues 94-202, with R125A; Same construct as m1 with one alanine substitution (QuikChange); source: E. coli BL21 (DE3), purified (DEAE Sepharose, Glutathione Sepharose 4 Fast Flow, thrombin cleavage, Superdex 75)
In the case of B1, the binding result was “binds”.

B2: hSTOM(SPFH)-[K188A] (domain or fragment, human, UniProt P27105 94-202, looked up)
chain: VDMRTISFDIPPQEILTKDSVTISVDGVVYYRVQNATLAVANITNADSATRLLAQTTLRNVLGTKNLSQILSDREEIAHNMQSTLDDATDAWGIAVERVEIKDVKLPVQ
notes: human stomatin (STOM), SPFH domain, residues 94-202, with K188A; Same construct as m1 with one alanine substitution (QuikChange); source: E. coli BL21 (DE3), purified (DEAE Sepharose, Glutathione Sepharose 4 Fast Flow, thrombin cleavage, Superdex 75)
Turning to B2, the binding result is given as “binds”.
